PMC10628450 (2023)

What was measured:
[1] = molecular target: T1, FcRn-His6 (UniProt P55899 24-365); assay: BLI; pH 6
[2] = molecular target: T1, FcRn-His6; assay: BLI; pH 6; remark: listed apart in the source

koff [1]: 0.0685 s⁻¹
Kd [2]: 361 nM
B1: Anti-NKp46 IgG (antibody)
chain 1: QVQLVQSGAEVKKPGSSVKVSCKASGYTFSDYVINWVRQAPGQGLEWMGEIYPGSGTNYYNEKFKAKATITADKSTSTAYMELSSLRSEDTAVYYCARRGRYGLYAMDYWGQGTTVTVSS
chain 2: DIQMTQSPSSLSASVGDRVTITCRASQDISNYLNWYQQKPGKAPKLLIYYTSRLHSGVPSRFSGSGSGTDFTFTISSLQPEDIATYFCQQGNTRPWTFGGGTKVEIK
modifications: In-house soluble FcRn-His6, tag omitted; ectodomain limits from UniProt topology; beta-2-microglobulin is not named in the paper and is added by convention as the obligate light chain; check residues are not from the paper; N-glycosylated
